{
  "source": "patent US20230257479A1",
  "about": "(Genmab, published 2023)",
  "binders": {"B1": {"name": "IgG1-5T4-A1-FEAR (antibody, V domains shown)", "VH": "QIQLVQSGPELKKPGETVKISCKASGYTFTNFGMNWVKQGPGEGLKWMGWINTNTGEPRYAEEFKGRFAFSLETTASTAYLQINNLKNEDTATYFCARDWDGAYFFDYWGQGTTLTVSS", "VL": "SIVMTQTPKFLLVSAGDRVTITCKASQSVSNDVAWYQQKPGQSPKLLINFATNRYTGVPNRFTGSGYGTDFTFTISTVQAEDLALYFCQQDYSSPWTFGGGTKLEIK", "notes": "Based on A1 from Wyeth; IgG1 with L234F, L235E, D265A, K409R (FEAR)"}, "B2": {"name": "bsIgG1-huCD3-H101G-FEALx5T4-106-FEAR (bispecific antibody)", "heavy": "not shown", "light": "not shown", "VH": "EVQLVQSGAEVKKPGESLKISCKGSGYRFTSYWIGWVRQMPGKGLEWMGIIYPGDSDARYSPSFQGQVTISADKSISTAYLQWSSLKASDTGMYYCARSVLFDYWGQGTLVTVSS", "VL": "AIQLTQSPSSLSASVGDRVTITCRASQGISSALAWYQQKPGKAPKLLIYDVSNLESGVPSRFSGSGSGTDFTLTISSLQPEDFATYYCQQFNSYPHTFGQGTKLEIK", "notes": "Fab-arm exchange product"}, "B3": {"name": "IgG1-5T4-085-FEAR (antibody, V domains shown)", "VH": "EVQLLESGGGLVQPGGSLRLSCAASGFTFSSYAMSWVRQAPGKGLEWVSAISGSGGSTYNADSVKGRFTIFRDNSKNTLYLHMNSLRAEDTAVYYCARDPGYNNVEYLDHWGQGTLVTVSS", "VL": "B2 VL with V51A, N53S, H96L, Q100G, L104V", "notes": "Monospecific, bivalent human IgG1 kappa with L234F, L235E, D265A, K409R (FEAR)"}, "B4": {"name": "bsIgG1-huCD3-H101G-FEALx5T4-226-FEAR (bispecific antibody)", "heavy": "not shown", "light": "not shown", "VH": "QVQLQQWGAGLLKPSETLSLTCAVYGGSFSGYYWSWIRQPPGKGLEWIGEIDHSGSTNYNPSLKSRVTISVDTSKNQFSLKLSSVTAADTAVYYCAAWFGELWDYYYGMDVWGQGTTVTVSS", "VL": "EIVLTQSPATLSLSPGERATLSCRASQSVSSFLAWYQQKPGQAPRLLIYDASNRATGIPARFSGSGSGTDFTLTISSLEPEDFAVYYCQQRSNWPLTFGQGTRLEIK", "notes": "Fab-arm exchange product"}},
  "key": {"[1]": {"molecular_target": "T1, full length human 5T4 (SEQ ID NO: 1) on cells (human, UniProt Q13641 32-420)", "T1 construct": "Uniprot Q13641; residues 1-31 are the signal peptide; Used both for transfected HEK-293 cells and for 5T4-expressing human tumor cell lines", "T1 sequence": "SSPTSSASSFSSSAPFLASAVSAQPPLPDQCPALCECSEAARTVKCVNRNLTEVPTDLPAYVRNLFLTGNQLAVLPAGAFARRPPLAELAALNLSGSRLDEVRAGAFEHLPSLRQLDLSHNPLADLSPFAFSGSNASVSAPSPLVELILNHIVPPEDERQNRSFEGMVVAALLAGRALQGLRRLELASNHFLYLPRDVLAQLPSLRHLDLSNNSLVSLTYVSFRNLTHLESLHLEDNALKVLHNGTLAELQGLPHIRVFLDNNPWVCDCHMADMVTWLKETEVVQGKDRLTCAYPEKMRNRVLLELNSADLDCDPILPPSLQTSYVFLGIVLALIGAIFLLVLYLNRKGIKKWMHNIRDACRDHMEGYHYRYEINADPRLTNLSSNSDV", "assay": "flow cytometry, HeLa cells, PE secondary [II)G]"}, "[2]": {"molecular_target": "T2, full length cynomolgus monkey 5T4 on transfected HEK-293 cells (cynomolgus monkey, UniProt Q4R8Y9 35-420)", "T2 construct": "Uniprot Q4R8Y9; residues 1-34 are the signal peptide; also called cynomolgus 5T4", "T2 sequence": "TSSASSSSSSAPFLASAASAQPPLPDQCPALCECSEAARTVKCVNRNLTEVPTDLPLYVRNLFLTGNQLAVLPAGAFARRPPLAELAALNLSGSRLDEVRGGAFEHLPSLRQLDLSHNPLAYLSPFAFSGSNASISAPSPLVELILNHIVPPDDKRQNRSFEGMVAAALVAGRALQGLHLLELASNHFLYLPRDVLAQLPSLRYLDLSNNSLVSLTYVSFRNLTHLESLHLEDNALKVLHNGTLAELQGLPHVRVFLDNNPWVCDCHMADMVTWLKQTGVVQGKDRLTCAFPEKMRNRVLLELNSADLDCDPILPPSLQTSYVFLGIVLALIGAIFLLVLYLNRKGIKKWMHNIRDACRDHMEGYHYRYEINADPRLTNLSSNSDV", "assay": "flow cytometry, HEK-293 cells transfected with cynomolgus monkey 5T4, PE secondary [II)H]"}, "[3]": {"molecular_target": "T1, full length human 5T4 (SEQ ID NO: 1) on …", "assay": "flow cytometry, HeLa cells, PE secondary [II)D]"}, "[4]": {"molecular_target": "T1, full length human 5T4 (SEQ ID NO: 1) on …", "assay": "flow cytometry, MDA-MB-231 cells, PE secondary [III)D]"}, "[5]": {"molecular_target": "T2, full length cynomolgus monkey 5T4 on …", "assay": "flow cytometry, HEK-293 cells transfected with cynomolgus monkey 5T4, PE secondary [II)D]"}, "[6]": {"molecular_target": "T3, human 5T4ECDHis (mature protein of SEQ ID NO: 99) (human, UniProt Q13641 32-355)", "T3 construct": "ECD of human 5T4 (aa 1-355 of Uniprot Q13641) with C-terminal His tag; residues 1-31 are the signal peptide; also called ECD of human 5T4 with a C-terminal His tag", "T3 sequence": "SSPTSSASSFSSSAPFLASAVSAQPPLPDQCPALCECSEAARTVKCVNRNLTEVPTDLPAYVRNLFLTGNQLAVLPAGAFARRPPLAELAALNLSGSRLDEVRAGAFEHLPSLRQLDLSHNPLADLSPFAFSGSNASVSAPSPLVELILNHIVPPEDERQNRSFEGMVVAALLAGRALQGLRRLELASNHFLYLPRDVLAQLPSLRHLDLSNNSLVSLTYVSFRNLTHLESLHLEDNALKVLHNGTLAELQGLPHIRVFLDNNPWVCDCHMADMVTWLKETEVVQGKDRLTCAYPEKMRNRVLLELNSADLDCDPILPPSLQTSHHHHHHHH", "assay": "BLI cross-block; competitor (immobilised): IgG1-5T4-H8-FEAR"}, "[7]": {"molecular_target": "T3, human 5T4ECDHis (mature protein of SEQ …)", "assay": "BLI cross-block; competitor (immobilised): IgG1-5T4-059-FEAR"}, "[8]": {"molecular_target": "T3, human 5T4ECDHis (mature protein of SEQ …)", "assay": "BLI cross-block; competitor (immobilised): IgG1-5T4-076-FEAR"}, "[9]": {"molecular_target": "T3, human 5T4ECDHis (mature protein of SEQ …)", "assay": "BLI cross-block; competitor (immobilised): IgG1-5T4-085-FEAR"}, "[10]": {"molecular_target": "T3, human 5T4ECDHis (mature protein of SEQ …)", "assay": "BLI cross-block; competitor (immobilised): IgG1-5T4-106-FEAR"}, "[11]": {"molecular_target": "T3, human 5T4ECDHis (mature protein of SEQ …)", "assay": "BLI cross-block; competitor (immobilised): IgG1-5T4-127-FEAR"}, "[12]": {"molecular_target": "T3, human 5T4ECDHis (mature protein of SEQ …)", "assay": "BLI cross-block; competitor (immobilised): IgG1-5T4-207-FEAR"}, "[13]": {"molecular_target": "T3, human 5T4ECDHis (mature protein of SEQ …)", "assay": "BLI cross-block; competitor (immobilised): IgG1-5T4-226-FEAR"}, "[14]": {"molecular_target": "T3, human 5T4ECDHis (mature protein of SEQ …)", "assay": "BLI cross-block; competitor (immobilised): IgG1-5T4-A1-F405L"}, "[15]": {"molecular_target": "T3, human 5T4ECDHis (mature protein of SEQ …)", "assay": "BLI cross-block; competitor (immobilised): IgG1-5T4-A3-F405L"}, "[16]": {"molecular_target": "T1, full length human 5T4 (SEQ ID NO: 1) on …", "assay": "flow cytometry, MDA-MB-231 cells, PE secondary [III)E]"}, "[17]": {"molecular_target": "T2, full length cynomolgus monkey 5T4 on …", "assay": "flow cytometry, HEK-293 cells transfected with cynomolgus monkey 5T4, PE secondary [II)F]"}, "[18]": {"molecular_target": "T1, full length human 5T4 (SEQ ID NO: 1) on …", "assay": "flow cytometry, HeLa cells, PE secondary [II)B]"}, "[19]": {"molecular_target": "T1, full length human 5T4 (SEQ ID NO: 1) on …", "assay": "flow cytometry, HeLa cells, FITC secondary [I)C]"}, "[20]": {"molecular_target": "T1, full length human 5T4 (SEQ ID NO: 1) on …", "assay": "flow cytometry, MDA-MB-231 cells, FITC secondary [I)C]"}, "[21]": {"molecular_target": "T1, full length human 5T4 (SEQ ID NO: 1) on …", "assay": "flow cytometry, MDA-MB-231 cells, PE secondary [III)B]"}, "[22]": {"molecular_target": "T1, full length human 5T4 (SEQ ID NO: 1) on …", "assay": "flow cytometry, HEK-293 cells transfected with human 5T4, PE secondary [II)B]"}, "[23]": {"molecular_target": "T1, full length human 5T4 (SEQ ID NO: 1) on …", "assay": "flow cytometry, HEK-293 cells transfected with human 5T4, FITC secondary [I)B]"}, "[24]": {"molecular_target": "T2, full length cynomolgus monkey 5T4 on …", "assay": "flow cytometry, HEK-293 cells transfected with cynomolgus monkey 5T4, PE secondary [II)B]"}, "[25]": {"molecular_target": "T2, full length cynomolgus monkey 5T4 on …", "assay": "flow cytometry, HEK-293 cells transfected with cynomolgus monkey 5T4, FITC secondary [I)B]"}},
  "note": "Residue numbers refer to the chain shown, from its start. Names may count otherwise.",
  "data": [
    {"binder": "B1", "values": [
      {"measurement": "binding result", "setting": "[1]", "value": "binds"},
      {"measurement": "EC50 (read off the curve)", "setting": "[2]", "value": "~0.1", "unit": "µg/mL"}
    ]},
    {"binder": "B2", "values": [
      {"measurement": "EC50 (read off the curve)", "setting": "[3]", "value": "~0.1", "unit": "µg/mL"},
      {"measurement": "EC50 (read off the curve)", "setting": "[4]", "value": "~0.1", "unit": "µg/mL"},
      {"measurement": "binding result", "setting": "[5]", "value": "binds"}
    ]},
    {"binder": "B3", "values": [
      {"measurement": "corrected association response", "setting": "[6]", "value": -0.02, "unit": "nm"},
      {"measurement": "corrected association response", "setting": "[7]", "value": -0.02, "unit": "nm"},
      {"measurement": "corrected association response", "setting": "[8]", "value": -0.02, "unit": "nm"},
      {"measurement": "corrected association response", "setting": "[9]", "value": -0.01, "unit": "nm"},
      {"measurement": "corrected association response", "setting": "[10]", "value": -0.04, "unit": "nm"},
      {"measurement": "corrected association response", "setting": "[11]", "value": -0.01, "unit": "nm"},
      {"measurement": "corrected association response", "setting": "[12]", "value": 1.03, "unit": "nm"},
      {"measurement": "corrected association response", "setting": "[13]", "value": 1.35, "unit": "nm"},
      {"measurement": "corrected association response", "setting": "[14]", "value": 0.72, "unit": "nm"},
      {"measurement": "corrected association response", "setting": "[15]", "value": 0, "unit": "nm"},
      {"measurement": "EC50 (read off the curve)", "setting": "[16]", "value": "~0.04", "unit": "µg/mL"},
      {"measurement": "EC50 (read off the curve)", "setting": "[17]", "value": "~0.008", "unit": "µg/mL"}
    ]},
    {"binder": "B4", "values": [
      {"measurement": "EC50 (read off the curve)", "setting": "[18]", "value": "~0.04", "unit": "µg/mL"},
      {"measurement": "EC50 (read off the curve)", "setting": "[19]", "value": "~0.02", "unit": "µg/mL"},
      {"measurement": "EC50 (read off the curve)", "setting": "[20]", "value": "~0.1", "unit": "µg/mL"},
      {"measurement": "EC50 (read off the curve)", "setting": "[21]", "value": "~0.04", "unit": "µg/mL"},
      {"measurement": "EC50 (read off the curve)", "setting": "[22]", "value": "~0.1", "unit": "µg/mL"},
      {"measurement": "EC50 (read off the curve)", "setting": "[23]", "value": "~0.2", "unit": "µg/mL"},
      {"measurement": "EC50 (read off the curve)", "setting": "[24]", "value": "~0.06", "unit": "µg/mL"},
      {"measurement": "EC50 (read off the curve)", "setting": "[25]", "value": "~0.1", "unit": "µg/mL"}
    ]}
  ]
}
